Source: patent US20230358760, “APTAMERS THAT TARGET CXCL9” (RHEINISCHE FRIEDRICH-WILHELMS-UNIVERSITÄt BONN, published 2023)

What was measured:
[1] = target: T1, CXCL9 (MIG) (Homo sapiens) (UniProt Q07325); test: ELONA; conditions: n=2
T1 sequence: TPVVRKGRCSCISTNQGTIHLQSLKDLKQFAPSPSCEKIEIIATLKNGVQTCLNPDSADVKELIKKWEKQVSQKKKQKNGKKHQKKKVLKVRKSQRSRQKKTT

CXCL11 (Homo sapiens) = target: T2, CXCL11 (Homo sapiens) (UniProt O14625); test: ELONA; conditions: n=2
T2 sequence: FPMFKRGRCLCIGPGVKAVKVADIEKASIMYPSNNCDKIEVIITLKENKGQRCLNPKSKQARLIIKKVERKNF

CXCL9 (MIG) [2] = target: T3, CXCL9 (MIG) (Homo sapiens, UniProt Q07325 Q07325:23-125); test: flow; scrambled non-binding control; conditions: tags: Origene; immobilised on magnetic beads for flow cytometry; label: 5' Cy5
T3 sequence: T1 sequence
Description: The binding of indole-modified aptamer of SEQ ID NO: 5 (I29 In), unmodified aptamer of SEQ ID NO: 6 (G123 DNA), and indole-modified aptamer of SEQ ID NO: 4 (G123 In) to pro-inflammatory chemokine CXCL9 was determined in competition assay. 100 nM Cy-5 labelled DNA was incubated simultaneous with 1 μM unlabelled DNA and thus competed for binding. After incubation the remaining Cy5 labelled DNA on CXCL9-magnetic beads was analysed with flow cytometry as described above. As control, Cy5-labeled DNA without competitor was analysed and was used to normalize data.
Binding of Cy5 labelled scrambled sequence is used as non-binding control. (n=2, mean±SD).

CXCL9 (MIG) [3] = target: T3, CXCL9 (MIG); test: ELONA; n=2; conditions: tags: Origene; immobilised on magnetic beads for flow cytometry; label: 5' biotin or Cy5; G4
Description: (§1) 20 μl of 1 μg/ml protein in bicarbonate/carbonate buffer pH 9.6 was coated overnight at 4° C. on 96 well half area plates (Greiner Bio). After washing three times with 100 μL WB1 (PBS+0.05% Tween 20), wells were blocked with 1% BSA in PBS for 2 h at RT with slight agitation. […] Wells were washed once with 100 μL WB2 (138 mM NaCl, 5 mM KCl, 1.5 mM KH₂PO₄, 8.1 mM Na₂HPO₄, 170 mM urea, 7 mM ammonium acetate, 1 mM MgCl₂, 1 mM CaCl₂), pH 6.5).
DNA was diluted to respective concentration in SB1 and 20 μL is transferred onto the wells in duplicates (protein and BSA wells). After incubation of 30 min at RT and slight agitation, the wells were washed two times with 100 μL WB1 and are incubated with 20 μL of streptavidin-horseradish peroxidase (SA-HRP) solution (1:1000 in PBS, GE Healtcare). After 30 min incubation at RT the wells were washed again twice with 100 μL WB1. Finally, the complex was incubated with 1-Step ABTS (ThermoFisher) for 15-40 min at RT, slight agitation. Absorbance at 405 nm was read out with a Tecan Nanoquant plate reader. […]
In parallel, the influence of indole (In) modification and azide without modification (E) on the affinity of aptamer SEQ ID NO: 4 (G123) was determined using ELONA and compared to the affinity of unmodified DNA (DNA). […] In the table, “+” represents successful binding, while “−” means no detection of binding, “n.d.” denotes not determined.

CRP (C-reactive protein) = target: T4, CRP (C-reactive protein) (Homo sapiens, UniProt P02741 P02741:19-224); test: ELONA; DNA at 2x KD; conditions: tags: BioRad; chain copies: 5; label: 5' biotin or Cy5; G4
T4 sequence: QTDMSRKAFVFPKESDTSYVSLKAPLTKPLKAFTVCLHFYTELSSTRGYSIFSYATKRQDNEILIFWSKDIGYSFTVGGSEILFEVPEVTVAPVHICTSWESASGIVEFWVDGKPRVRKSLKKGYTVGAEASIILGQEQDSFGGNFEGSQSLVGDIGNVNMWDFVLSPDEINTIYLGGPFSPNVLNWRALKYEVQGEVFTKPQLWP
Description: as §1
(§2) DNA was diluted to respective concentration in SB1 and 20 μL is transferred onto the wells in duplicates (protein and BSA wells). After incubation of 30 min at RT and slight agitation, the wells were washed two times with 100 μL WB1 and are incubated with 20 μL of streptavidin-horseradish peroxidase (SA-HRP) solution (1:1000 in PBS, GE Healtcare). After 30 min incubation at RT the wells were washed again twice with 100 μL WB1. Finally, the complex was incubated with 1-Step ABTS (ThermoFisher) for 15-40 min at RT, slight agitation. Absorbance at 405 nm was read out with a Tecan Nanoquant plate reader. Binding of DNA to BSA background was subtracted from binding of DNA to protein sample.
(§3) Binding of aptamers of SEQ ID NO: 4 (G123) and SEQ ID NO: 5 (I29) to different proteins was determined using ELONA. […] The pro-inflammatory chemokines CXCL9, CXCL10, CXCL11, and CXCL1 were used, as well as soluble interleukin-2 receptor (sCD25), C-reactive protein (CRP), C—C motif chemokine ligand 17 (CCL17), C—C motif chemokine ligand 22 (CCL22), C—C motif chemokine ligand 3(CCL3) and human serum albumin (HAS).

CXCL1 = CXCL1 (Homo sapiens, UniProt P09341 P09341:35-107); test: ELONA; DNA at 2x KD; conditions: tags: Cell guidance system; label: 5' biotin or Cy5; G4
Chain of CXCL1 (P09341 35-107, one chain of several): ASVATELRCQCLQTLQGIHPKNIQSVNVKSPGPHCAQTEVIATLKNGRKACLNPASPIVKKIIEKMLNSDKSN
Description: as §1, §2, §3

CCL22 = target: T5, CCL22 (Homo sapiens, UniProt O00626 O00626:25-93); test: ELONA; DNA at 2x KD; conditions: tags: BioLegend; label: 5' biotin or Cy5; G4
T5 sequence: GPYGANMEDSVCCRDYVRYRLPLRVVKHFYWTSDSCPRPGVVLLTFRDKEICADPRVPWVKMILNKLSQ
Description: as §1, §2, §3

CCL17 = CCL17 (Homo sapiens, UniProt Q92583 Q92583:24-94); test: ELONA; DNA at 2x KD; conditions: tags: BioLegend; label: 5' biotin or Cy5; G4
Chain of CCL17 (Q92583 24-94, one chain of several): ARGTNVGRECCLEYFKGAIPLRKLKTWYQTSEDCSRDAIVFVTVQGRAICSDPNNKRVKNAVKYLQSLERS
Description: as §1, §2, §3

[4] = target: HSA (human serum albumin) (Homo sapiens, UniProt P02768 P02768:25-609); test: ELONA; DNA at 2x KD; conditions: tags: Sigma-Aldrich; label: 5' biotin or Cy5; G4
Chain of HSA (human serum albumin) (P02768 25-609, one chain of several): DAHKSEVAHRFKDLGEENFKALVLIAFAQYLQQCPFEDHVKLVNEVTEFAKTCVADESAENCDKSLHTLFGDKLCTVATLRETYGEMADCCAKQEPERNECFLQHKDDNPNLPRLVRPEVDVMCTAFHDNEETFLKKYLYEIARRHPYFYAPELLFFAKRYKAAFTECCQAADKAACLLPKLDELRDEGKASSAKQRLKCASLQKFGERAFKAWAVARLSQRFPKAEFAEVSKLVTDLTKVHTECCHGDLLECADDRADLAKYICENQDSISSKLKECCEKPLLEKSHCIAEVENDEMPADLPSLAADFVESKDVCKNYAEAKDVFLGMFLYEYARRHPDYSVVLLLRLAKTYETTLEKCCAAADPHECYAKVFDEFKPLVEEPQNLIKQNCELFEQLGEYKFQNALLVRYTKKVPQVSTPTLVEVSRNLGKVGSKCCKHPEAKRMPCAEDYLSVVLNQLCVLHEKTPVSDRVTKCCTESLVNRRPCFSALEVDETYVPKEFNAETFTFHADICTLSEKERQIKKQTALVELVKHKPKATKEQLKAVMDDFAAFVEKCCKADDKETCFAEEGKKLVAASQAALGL
Description: as §1, §2, §3

CXCL10 = CXCL10 (Homo sapiens, UniProt P02778 P02778:22-98); test: ELONA; DNA at 2x KD; conditions: tags: Cell guidance system; label: 5' biotin or Cy5; G4
Chain of CXCL10 (P02778 22-98, one chain of several): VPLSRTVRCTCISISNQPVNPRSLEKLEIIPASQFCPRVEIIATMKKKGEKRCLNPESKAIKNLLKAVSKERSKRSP
Description: as §1, §2, §3

[5] = target: sCD25 (soluble interleukin-2 receptor) (Homo sapiens, UniProt P01589 P01589:22-240); test: ELONA; DNA at 2x KD; conditions: tags: Antikorper online; label: 5' biotin or Cy5; G4
Chain of sCD25 (soluble interleukin-2 receptor) (P01589 22-240, one chain of several): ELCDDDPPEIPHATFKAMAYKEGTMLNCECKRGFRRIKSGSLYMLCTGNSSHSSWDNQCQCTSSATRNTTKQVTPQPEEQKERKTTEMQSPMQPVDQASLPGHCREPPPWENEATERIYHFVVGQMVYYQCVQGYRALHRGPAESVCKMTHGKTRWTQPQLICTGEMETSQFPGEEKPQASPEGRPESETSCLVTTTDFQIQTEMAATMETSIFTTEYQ
Description: as §1, §2, §3

CCL3 = CCL3 (Homo sapiens, UniProt P10147 P10147:24-92); test: ELONA; DNA at 2x KD; conditions: tags: Peprotech; label: 5' biotin or Cy5; G4
Chain of CCL3 (P10147 24-92, one chain of several): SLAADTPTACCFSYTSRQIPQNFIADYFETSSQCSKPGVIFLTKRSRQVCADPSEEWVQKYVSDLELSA
Description: as §1, §2, §3

CXCL11 = target: T6, CXCL11 (Homo sapiens, UniProt O14625 O14625:22-94); test: ELONA; n=2; conditions: tags: Cell guidance system; label: 5' biotin or Cy5; G4
T6 sequence: T2 sequence
Description: as §1, §2

[6] = indole-clicked EdU at all N [31,45,49,53 (indole-clicked EdU)]
[7] = indole-clicked EdU at all N (28,44,47,49,50) [28,44,47,49,50 (indole-clicked EdU)]

CACGACGCAAGGGACCACAGGAGAGACTCACGGGCGGGCGACCTACTGTTCAGCCCAGACCGACAGCACGACACCGCAGAGGCA [I29 Phe]
Kd ([1]; phenol-clicked EdU at all N [28,44,47,49,50 (phenol-clicked EdU)]): 177 nM

CACGACGCAAGGGACCACAGGAGAGACTCACGGGCGGGCGACCTACTGTTCAGCCCAGACCGACAGCACGACACCGCAGAGGCA [I29 BnFu]
Kd ([1]; benzofurane-clicked EdU at all N [28,44,47,49,50 (benzofurane-clicked EdU)]): 17 nM

CACGACGCAAGGGACCACAGGAGAGACTCACGGGCGGGCGACCTACTGTTCAGCCCAGACCGACAGCACGACACCGCAGAGGCA [I29 Naph]
Kd ([1]; naphthalene-clicked EdU at all N [28,44,47,49,50 (naphthalene-clicked EdU)]): 21 nM

CACGACGCAAGGGACCACAGGGAGGGAGGGTGGGCAAAGGGCCCTAAGTCCGTAACAAAAACACAGCACGACACCGCAGAGGCA [G123 In]
Kd (CXCL11 (Homo sapiens); [6]): 73 nM | Kd [1, 6]: 39 nM

CACGACGCAAGGGACCACAGGAGAGACTCACGGGCGGGCGACCTACTGTTCAGCCCAGACCGACAGCACGACACCGCAGAGGCA [I29 In]
Kd (CXCL11 (Homo sapiens); [7]): 17 nM | Kd [1, 7]: 12 nM

B1: G123.sc (ssDNA)
DNA: CACGACGCAAGGGACCACAGGAGGAGAGTAGGCGATACACGACGTAGCGCAGATAGGACCAAGCAGCACGACACCGCAGAGGCA
modifications: N = T or EdU [29,36,45,54 (T or EdU)]
binding result (CXCL9 (MIG) [2]): no binding

B2: G123 DNA (ssDNA)
DNA: CACGACGCAAGGGACCACAGGGAGGGAGGGTGGGCAAAGGGCCCTAAGTCCGTAACAAAAACACAGCACGACACCGCAGAGGCA
Kd (CXCL9 (MIG) [3]): 92 nM | binding result (CRP (C-reactive protein)): no binding | binding result (CXCL1): no binding | binding result (CCL22): no binding | binding result (CCL17): no binding | binding result [4]: no binding | binding result (CXCL10): no binding | binding result [5]: no binding | binding result (CCL3): no binding | Kd (CXCL11): 249 nM
